{"source": "patent US10731187B2", "about": "“Recombinant strain producing O-aminobenzoate and fermentative production of aniline from renewable resources via 2-aminobenzoic acid” (Covestro Deutschland AG, priority 2014, dated 2020)", "details_in_all_cases": "other: raw extract (cell lysate), 25 °C, 20 mM L-glutamine, 10 mM MgCl2, chorismate as substrate", "key": {"[1]": {"substrate": "C=C(O[C@@H]1C=C(C(=O)O)C=C[C@H]1O)C(=O)O", "experiment": "Anthranilate synthase activity in cell lysate of C. glutamicum ΔtrpD/pEKEx2-trpEG^S40F (KM and vmax)", "type": "biochemical, E. coli", "text": "(§1) In more specific embodiments of the recombinant microbial host cell of invention, the Corynebacterium glutamicum microbial host cell, preferably Corynebacterium glutamicum ATCC 13032, can further overexpress one or more of the genes selected from the group consisting of galP (SEQ ID NO: 30), iolT2 (SEQ ID NO: 31), ppgk (SEQ ID NO: 32), pps (SEQ ID NO: 33-35), ppk (SEQ ID NO: 36), zwfl (SEQ ID NO: 37), opcA (SEQ ID NO: 38-39), tktCg (SEQ ID NO: 40), tktEc (SEQ ID NO: 41), talCg (SEQ ID NO: 42), tame (SEQ ID NO: 43), a gene encoding TrpEGS38F (trpEG^S38F, SEQ ID NO: 50), a gene encoding TrpEGS38R (trpEG^S38R, SEQ ID NO: 51), a gene encoding TrpEGS40R (trpEG^S40R, SEQ ID NO: 52), a gene encoding TrpEGS40F (trpEG^S40F, SEQ ID NO: 53), the gene encoding AroGD146N (aroG^D146N, SEQ ID NO: 55), aroL of Escherichia coli LJ110 (SEQ ID NO: 93), aroK (SEQ ID NO: 94), glnA (SEQ ID NO: 95), and qsuA (SEQ ID NO: 96). […]"}, "[2]": {"substrate": "C=C(O[C@@H]1C=C(C(=O)O)C=C[C@H]1O)C(=O)O", "experiment": "cells, lysate or membranes"}, "[3]": {"substrate": "C=C(O[C@@H]1C=C(C(=O)O)C=C[C@H]1O)C(=O)O", "experiment": "Anthranilate synthase activity in cell lysate of C. glutamicum ΔtrpD/pEKEx2-trpEG^S38F (KM and vmax)", "type": "biochemical, Corynebacterium glutamicum ATCC 13032", "text": "as §1"}, "[4]": {"substrate": "C=C(O[C@@H]1C=C(C(=O)O)C=C[C@H]1O)C(=O)O", "experiment": "Anthranilate synthase activity in cell lysate of C. glutamicum ΔtrpD/pEKEx2-trpEG^S38R (KM and vmax)", "type": "biochemical, Corynebacterium glutamicum ATCC 13032", "text": "as §1"}}}
{"protein": "E. coli TrpEG (anthranilate synthase) variant TrpEGS40F, mutation S40F (SEQ ID NO: 53 in b85; SEQ ID No. 50-51 in b196) (Escherichia coli K-12; S40F) (protein) MQTQKPTLELLTCEGAYRDNPTALFHQLCGDRPATLLLEFADIDSKDDLKSLLLVDSALRITALGDTVTIQALSGNGEALLALLDNALPAGVESEQSPNCRVLRFPPVSPLLDEDARLCSLSVFDAFRLLQNLLNVPKEEREAMFFGGLFSYDLVAGFEDLPQLSAENNCPDFCFYLAETLMVIDHQKKSTRIQASLFAPNEEEKQRLTARLNELRQQLTEAAPPLPVVSVPHMRCECNQSDEEFGGVVRLLQKAIRAGEIFQVVPSRRFSLPCPSPLAAYYVLKKSNPSPYMFFMQDNDFTLFGASPESSLKYDATSRQIEIYPIAGTRPRGRRADGSLDRDLDSRIELEMRTDHKELSEHLMLVDLARNDLARICTPGSRYVADLTKVDRYSYVMHLVSRVVGELRHDLDALHAYRACMNMGTLSGAPKVRAMQLIAEAEGRRRGSYGGAVGYFTAHGDLDTCIVIRSALVENGIATVQAGAGVVLDSVPQSEADETRNKARAVLRAIATAHHAQETF", "values": [{"measurement": "Vmax", "setting": "[1]", "value": 0.427, "unit": "µmol/min/mg"}]}
{"protein": "Corynebacterium glutamicum ATCC 13032 TrpEG (anthranilate synthase), natural (wild type, Cgl3029/31) (Corynebacterium glutamicum ATCC 13032) (protein) MSTNPHVFSLDVRYHEDASALFAHLGGTTADDAALLESADITTKNGISSLAVLKSSVRITCTGNTVVTQPLTDSGRAVVARLTQQLGQYNTAENTFSFPASDAVDERERLTAPSTIEVLRKLQFESGYSDASLPLLMGGFAFDFLETFETLPAVEESVNTYPDYQFVLAEIVLDINHQDQTAKLAGVSNAPGELEAELNKLSLLIDAALPATEHAYQTTPHDGDTLRVVADIPDAQFRTQINELKENIYNGDIYQVVPARTFTAPCPDAFAAYLQLRATNPSPYMFYIRGLNEGRSYELFGASPESNLKFTAANRELQLYPIAGTRPRGLNPDGSINDELDIRNELDMRTDAKEIAEHTMLVDLARNDLARVSVPASRRVADLLQVDRYSRVMHLVSRVTATLDPELDALDAYRACMNMGTLTGAPKLRAMELLRGVEKRRRGSYGGAVGYLRGNGDMDNCIVIRSAFVQDGVAAVQAGAGVVRDSNPQSEADETLHKAYAVLNAIALAAGSTLEVIR", "values": [{"measurement": "Km", "setting": "[2]", "value": 11.4, "unit": "µmol"}, {"measurement": "Vmax", "setting": "[2]", "value": 0.0127, "unit": "µmol/min/mg"}]}
{"protein": "Corynebacterium glutamicum TrpEG (anthranilate synthase) variant TrpEGS38F, mutation S38F (SEQ ID NO: 50 in b85; SEQ ID No. 52-53 in b196) (Corynebacterium … (protein) MSTNPHVFSLDVRYHEDASALFAHLGGTTADDAALLEFADITTKNGISSLAVLKSSVRITCTGNTVVTQPLTDSGRAVVARLTQQLGQYNTAENTFSFPASDAVDERERLTAPSTIEVLRKLQFESGYSDASLPLLMGGFAFDFLETFETLPAVEESVNTYPDYQFVLAEIVLDINHQDQTAKLAGVSNAPGELEAELNKLSLLIDAALPATEHAYQTTPHDGDTLRVVADIPDAQFRTQINELKENIYNGDIYQVVPARTFTAPCPDAFAAYLQLRATNPSPYMFYIRGLNEGRSYELFGASPESNLKFTAANRELQLYPIAGTRPRGLNPDGSINDELDIRNELDMRTDAKEIAEHTMLVDLARNDLARVSVPASRRVADLLQVDRYSRVMHLVSRVTATLDPELDALDAYRACMNMGTLTGAPKLRAMELLRGVEKRRRGSYGGAVGYLRGNGDMDNCIVIRSAFVQDGVAAVQAGAGVVRDSNPQSEADETLHKAYAVLNAIALAAGSTLEVIR", "values": [{"measurement": "Km", "setting": "[3]", "value": 16.2, "unit": "µmol"}, {"measurement": "Vmax", "setting": "[3]", "value": 0.0688, "unit": "µmol/min/mg"}]}
{"protein": "Corynebacterium glutamicum TrpEG (anthranilate synthase) variant TrpEGS38R, mutation S38R (SEQ ID NO: 51 in b85; SEQ ID No. 52-53 in b196) (Corynebacterium … (protein) MSTNPHVFSLDVRYHEDASALFAHLGGTTADDAALLERADITTKNGISSLAVLKSSVRITCTGNTVVTQPLTDSGRAVVARLTQQLGQYNTAENTFSFPASDAVDERERLTAPSTIEVLRKLQFESGYSDASLPLLMGGFAFDFLETFETLPAVEESVNTYPDYQFVLAEIVLDINHQDQTAKLAGVSNAPGELEAELNKLSLLIDAALPATEHAYQTTPHDGDTLRVVADIPDAQFRTQINELKENIYNGDIYQVVPARTFTAPCPDAFAAYLQLRATNPSPYMFYIRGLNEGRSYELFGASPESNLKFTAANRELQLYPIAGTRPRGLNPDGSINDELDIRNELDMRTDAKEIAEHTMLVDLARNDLARVSVPASRRVADLLQVDRYSRVMHLVSRVTATLDPELDALDAYRACMNMGTLTGAPKLRAMELLRGVEKRRRGSYGGAVGYLRGNGDMDNCIVIRSAFVQDGVAAVQAGAGVVRDSNPQSEADETLHKAYAVLNAIALAAGSTLEVIR", "values": [{"measurement": "Km", "setting": "[4]", "value": 21.6, "unit": "µmol"}, {"measurement": "Vmax", "setting": "[4]", "value": 0.231, "unit": "µmol/min/mg"}]}
